Data reported in article PMC10184318, “The fission yeast cytokinetic ring component Fic1 promotes septum formation” (Biology Open, 2023).

Molecular target: T1, Fic1-MBP (S. pombe, UniProt O94701 1-272)
T1 construct: Fic1 of S. pombe; The printed name puts MBP after Fic1; source: E. coli, purified (standard biochemistry techniques)
T1 sequence (looked up): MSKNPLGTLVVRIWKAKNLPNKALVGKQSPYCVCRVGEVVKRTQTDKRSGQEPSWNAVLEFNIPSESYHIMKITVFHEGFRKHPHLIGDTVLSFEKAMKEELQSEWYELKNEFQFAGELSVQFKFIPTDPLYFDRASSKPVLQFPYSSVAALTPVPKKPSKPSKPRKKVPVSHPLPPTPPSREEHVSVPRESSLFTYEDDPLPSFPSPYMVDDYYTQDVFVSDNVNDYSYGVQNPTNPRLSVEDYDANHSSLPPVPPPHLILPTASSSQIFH
Assay: pull-down; in vitro binding assay with recombinant proteins, one bead-bound and one soluble; 20 mM Tris pH 7.4, 150 mM NaCl; 4°C, 1 h; three washes; SDS-PAGE and Coomassie staining
Conditions: both partners purified

B1: Cyk3-SH3-GST (aa1-66) (domain or fragment, S. pombe, UniProt O14302 1-66, looked up)
chain: MSIPKQLPCMVRALYAWPGEREGDLKFTEGDLIECLSIGDGKWWIGRHINTNTQGIFPSNFVHCLD
notes: Cyk3 of S. pombe, SH3 domain, residues 1-66; The printed name puts GST after the SH3 domain (Cyk3-SH3-GST, against GST-Cdc15-SH3), which hints at a C-terminal GST; also called Cyk3's SH3 domain; source: E. coli, purified (standard biochemistry techniques)
binding result: binds
